The nature of data set [1]: Ex vivo prodrug metabolism in HT1080 tumour homogenate (LC/MS/MS). The class given is in vitro ADME, human. Particulars: for half-life: human, tissue homogenate, HT1080 tumour homogenate, mean of four independent experiments, read-out: Tumour t½. An excerpt:
(§1) Liver was representative of all normal tissues analysed. (FIG. 5) • d.
(§2) Half lives are the mean taken from four independent experiments. Liver represent murine liver homogenate and tumour represents HT1080

Data set [2] can be described thus: Ex vivo prodrug stability in normal mouse liver homogenate (LC/MS/MS). The class given is in vitro ADME. The following applies: for half-life: mouse, tissue homogenate, murine liver homogenate, mean of four independent experiments, read-out: Liver t½.
Description: as §1, §2

A short description of data set [3]: Ex vivo prodrug stability in normal mouse plasma (LC/MS/MS). The following applies: for stability in plasma and/or liver: alternative endcaps on MT-MMP prodrug.
Description: Prodrug cleavage and metabolism were detected using LC/MS/MS. • a.
In data set [4] the test system is HT1080 xenografts. Briefly: Dose response antitumour study, subcutaneous HT1080 xenografts. The class given is in vivo, Balb/C mice. The following applies: for Growth delay: vs control. The procedure:
(§3) ICT-2552 and ICT-2588 (‘prodrug’) were administered as a single dose via the intraperitoneal route to Balb/C mice bearing subcutaneous HT1080 xenografts. Each of the nine dosing groups comprised 8 mice. The anti-tumour effects of the compounds were assessed by determination of tumour volume and the existence of off-target toxicity was ascertained via monitoring mouse body weight.
(§4) The dosing groups evaluated ICT-2588 (prodrug) relative to the molar equivalent dose of ICT-2552 (warhead), and were: • 10% DMSO/oil (solvent control) • ICT-2588 at 37.5 mg/kg; 50.0 mg/kg; 62.5 mg/kg; 75.0 mg/kg • ICT-2552 at 7.5 mg/kg; 10.0 mg/kg; 12.5 mg/kg; 15 mg/kg Results

A short description of data set [5]: Off-target toxicity by mouse body weight in antitumour study. The class given is in vivo, Balb/C mice. The procedure: as §3, §4
The weight of all mice was within the tolerated loss of 15% of bodyweight, therefore the compounds are not classified as toxic to the whole body system.

Data set [6] is described as follows: Tissue levels of prodrug and VDA2 after intraperitoneal dosing of HT1080 tumour-bearing mice. It is filed as in vivo.
Description: as §1

[7] abbreviates: ICT-2552 10.0 mg/kg single i.p.
The mark [8] stands for this setting: ICT-2552 12.5 mg/kg single i.p.
The mark [9] stands for this setting: ICT-2552 15.0 mg/kg single i.p.

Non-standard residues stand in square brackets, D forms with d. Residues, ends and D or L forms follow the SMILES beside them. No end group written: not given here. *: point of attachment. NH(Colchicin-10-yl) = COc1cc2c(c(OC)c1OC)-c1ccc(N*)c(=O)cc1[C@@H](NC(C)=O)CC2; FITC = O=C1OC2(c3ccc(O)cc3Oc3cc(O)ccc32)c2ccc(NC(=S)*)cc21; hPhe = N[C@@H](CCc1ccccc1)C(=O)O; Cit = NC(=O)NCCC[C@H](N)C(=O)O; βAla = NCCC(=O)O

Take `COc1cc2c(c(OC)c1OC)-c1ccc(NC(=O)[C@H](Cc3ccc(O)cc3)NC(=O)[C@H](CC(C)C)NC(=O)[C@H](CC(N)=O)NC(=O)[C@H](CCc3ccccc3)NC(=O)CNC(=O)[C@H](CCCNC(N)=O)NC(=O)[C@H](CO)NC(=O)[C@H](CCCNC(=N)N)NC(=O)CCNC(=S)Nc3ccc4c(c3)C(=O)OC43c4ccc(O)cc4Oc4cc(O)ccc43)c(=O)cc1[C@@H](NC(C)=O)CC2` [ICT3078] ({FITC-βAla}-RS[Cit]G[hPhe]NLY-{NH(Colchicin-10-yl)}): the half-life was determined as 11 min in data set [1] and 76 min in data set [2].
Turning to `COc1cc2c(c(OC)c1OC)-c1ccc(NC(=O)[C@H](Cc3ccc(O)cc3)NC(=O)[C@H](CC(C)C)NC(=O)[C@H](C)NC(=O)[C@H](CCc3ccccc3)NC(=O)CNC(=O)[C@H](CCCNC(N)=O)NC(=O)[C@H](CO)NC(=O)[C@H](CCCNC(=N)N)NC(=O)CCNC(=S)Nc3ccc4c(c3)C(=O)OC43c4ccc(O)cc4Oc4cc(O)ccc43)c(=O)cc1[C@@H](NC(C)=O)CC2` [ICT3053] ({FITC-βAla}-RS[Cit]G[hPhe]ALY-{NH(Colchicin-10-yl)}), the half-life in data set [1] turned out to be 17 min; in data set [2] it was 76 min.
In the case of `COc1cc2c(c(OC)c1OC)-c1ccc(NC(=O)[C@H](Cc3ccc(O)cc3)NC(=O)[C@H](CC(C)C)NC(=O)[C@H](CO)NC(=O)[C@H](CCc3ccccc3)NC(=O)CNC(=O)[C@H](CCCNC(N)=O)NC(=O)[C@H](CO)NC(=O)[C@H](CCCNC(=N)N)NC(=O)CCNC(=S)Nc3ccc4c(c3)C(=O)OC43c4ccc(O)cc4Oc4cc(O)ccc43)c(=O)cc1[C@@H](NC(C)=O)CC2` [ICT3054] ({FITC-βAla}-RS[Cit]G[hPhe]SLY-{NH(Colchicin-10-yl)}), the figures for the half-life in data set [1] and in data set [2] were 9 min and 66 min, respectively.
In the same order, the values of `COc1cc2c(c(OC)c1OC)-c1ccc(NC(=O)[C@H](Cc3ccc(O)cc3)NC(=O)[C@H](CC(C)C)NC(=O)[C@H](CC(=O)O)NC(=O)[C@H](CCc3ccccc3)NC(=O)CNC(=O)[C@H](CCCNC(N)=O)NC(=O)[C@H](CO)NC(=O)[C@H](CCCNC(=N)N)NC(=O)CCNC(=S)Nc3ccc4c(c3)C(=O)OC43c4ccc(O)cc4Oc4cc(O)ccc43)c(=O)cc1[C@@H](NC(C)=O)CC2` [ICT3055] ({FITC-βAla}-RS[Cit]G[hPhe]DLY-{NH(Colchicin-10-yl)}) are 7 min and 67 min.
For “Quinic acid+2×D-Serine: conjugate based on MT-MMP prodrug (SEQ ID NO: 4) with quinic acid+2×D-Serine endcap (RS[Cit]G[hPhe]YLY; not fully specified (N-terminus); also: quinic acid + 2×D-Ser endcap, end not given here)”, in data set [3], the “stability in plasma and/or liver” value is reported as “insufficiently stable”.
Regarding `COc1cc2c(c(OC)c1OC)-c1ccc(NC(=O)[C@H](Cc3ccc(O)cc3)NC(=O)[C@H](CC(C)C)NC(=O)[C@@H]3CCCN3C(=O)[C@H](CCc3ccccc3)NC(=O)CNC(=O)[C@H](CCCNC(N)=O)NC(=O)[C@H](CO)NC(=O)[C@H](CCCNC(=N)N)NC(=O)CCNC(=S)Nc3ccc4c(c3)C(=O)OC43c4ccc(O)cc4Oc4cc(O)ccc43)c(=O)cc1[C@@H](NC(C)=O)CC2` [ICT3097] ({FITC-βAla}-RS[Cit]G[hPhe]PLY-{NH(Colchicin-10-yl)}), the half-life was 24 min in data set [1] and 110 min in data set [2].
Consider `COc1cc2c(c(OC)c1OC)-c1ccc(NC(=O)[C@H](Cc3ccc(O)cc3)NC(=O)[C@H](CC(C)C)NC(=O)[C@H](Cc3ccc(O)cc3)NC(=O)[C@H](CCc3ccccc3)NC(=O)CNC(=O)[C@H](CCCNC(N)=O)NC(=O)[C@H](CO)NC(=O)[C@H](CCCNC(=N)N)NC(=O)[C@@H](CO)NC(=O)[C@@H](CO)NC(=O)[C@H](N)CO)c(=O)cc1[C@@H](NC(C)=O)CC2` [3×D-Serine] (H-[dS][dS][dS]RS[Cit]G[hPhe]YLY-{NH(Colchicin-10-yl)}), for which the “stability in plasma and/or liver” value in data set [3] was “insufficiently stable”.
For the molecule `COc1cc2c(c(OC)c1OC)-c1ccc(NC(=O)[C@H](Cc3ccc(O)cc3)NC(=O)[C@H](CC(C)C)NC(=O)[C@H](CC(C)C)NC(=O)[C@H](CCc3ccccc3)NC(=O)CNC(=O)[C@H](CCCNC(N)=O)NC(=O)[C@H](CO)NC(=O)[C@H](CCCNC(=N)N)NC(=O)CCNC(=S)Nc3ccc4c(c3)C(=O)OC43c4ccc(O)cc4Oc4cc(O)ccc43)c(=O)cc1[C@@H](NC(C)=O)CC2` [ICT3080] ({FITC-βAla}-RS[Cit]G[hPhe]LLY-{NH(Colchicin-10-yl)}), the results for the half-life in data set [1] and in data set [2] were 48 min and 134 min, respectively.
For the molecule `COc1cc2c(c(OC)c1OC)-c1ccc(N)c(=O)cc1[C@@H](NC(C)=O)CC2` [ICT-2552, azademethylcolchicine], the “Mean time to RTV2” value came to 4.0 days in data set [4] (ICT-2552 7.5 mg/kg single i.p.), 4.4 days in data set [4] (setting [7]), 4.5 days in data set [4] (setting [8]) and 4.1 days in data set [4] (setting [9]). The “Median time RTV2” value was found to be 3.8 days in data set [4] (ICT-2552 7.5 mg/kg single i.p.), 4.2 days in data set [4] (setting [7]), 4.7 days in data set [4] (setting [8]) and 4.1 days in data set [4] (setting [9]). The Growth delay in data set [4] (ICT-2552 7.5 mg/kg single i.p.) stood at 1.6 days; in data set [4] (setting [7]), 2.0 days; in data set [4] (setting [8]), 2.5 days; in data set [4] (setting [9]), 1.9 days. Moreover, the “delay in tumour growth” value in data set [4] (all evaluated doses) was “significant delay in tumour growth”. The tumour response entry in data set [4] (all tested dose levels) is given as “Tumour responses were observed”. Also, the “Maximum % weight loss” value is 3% in data set [5] (ICT-2552 7.5 mg/kg), 6 (6) % in data set [5] (ICT-2552 10.0 mg/kg), 6% in data set [5] (ICT-2552 12.5 mg/kg) and 5% in data set [5] (ICT-2552 15.0 mg/kg). For the same molecule, the “day of maximum weight loss” value is 4 days in data set [5] (ICT-2552 7.5 mg/kg), 6 (6) day in data set [5] (ICT-2552 10.0 mg/kg), 1 days in data set [5] (ICT-2552 12.5 mg/kg) and 1 days in data set [5] (ICT-2552 15.0 mg/kg).
For the molecule `COc1cc2c(c(OC)c1OC)-c1ccc(NC(=O)[C@H](Cc3ccc(O)cc3)NC(=O)[C@H](CC(C)C)NC(=O)[C@H](Cc3ccc(O)cc3)NC(=O)[C@H](CCc3ccccc3)NC(=O)CNC(=O)[C@H](CCCNC(N)=O)NC(=O)[C@@H]3CCCN3C(=O)[C@H](CCC(=O)O)NC(=O)CCNC(=S)Nc3ccc4c(c3)C(=O)OC43c4ccc(O)cc4Oc4cc(O)ccc43)c(=O)cc1[C@@H](NC(C)=O)CC2` [Prodrug-1] ({FITC-βAla}-EP[Cit]G[hPhe]YLY-{NH(Colchicin-10-yl)}), the “metabolism in tumour homogenate” value in data set [1] (HT1080 xenograft homogenate ex vivo) is recorded as “metabolised”. Besides, the “prodrug level after 24 hours post-dosing” value in data set [6] (24 hours) is recorded as “not detectable”. In addition, in data set [6] (HT1080 tumour), the “VDA2 levels in tumour following prodrug administration” value is on record as “detected at high levels”. Further, in data set [6] (HT1080 tumour-bearing mice), the “prodrug accumulation in tissues” value was “accumulated and was detected in all tissues analysed”; the “site of highest prodrug levels” value is listed as “Highest prodrug-1 levels were observed in the tumour”. Also, the “VDA2 levels in normal tissues following prodrug administration” value in data set [6] (normal tissues) is “detectable at low levels”. For the same molecule, in data set [6] (normal tissues, 24 hours), the “VDA2 in normal tissues after 24 hours post-dosing” value is on record as “undetectable”. In data set [6] (tumour, 24 hours), the “VDA2 in tumour after 24 hours post-dosing” value is “still detectable at high levels”. In addition, the “stability in liver homogenate” value in data set [2] (normal mouse liver homogenate ex vivo) is listed as “stable”. In addition, in data set [3] (normal mouse plasma ex vivo), the stability in plasma entry was “stable”.

Values taken from patent US10912839B2, “Methods of treating cancer using compounds containing a vascular disrupting agent” (priority 2008, dated 2021).
